Test [1] deals with BG505 SOSIP.664 N88Q (HIV-1 strain BG505). Kind of test: SPR. (In SPR one partner is held on a chip, and binding of the other changes the refractive index at the surface.)
The target in test [2] is BG505 SOSIP.664 trimer (HIV-1 strain BG505). Briefly: SPR.
Test [3] deals with single-chain BG505 SOSIP.664 trimer (HIV-1 strain BG505). Kind of test: SPR.
Test [4] addresses BG505 SOSIP.664 trimer (HIV-1 strain BG505). Briefly: negative-stain electron microscopy.

The results in this text go back to PMC4917739.

As for Fab VRC34.01, the Kd (commonly a measure of binding affinity in units of concentration) in test [1] amounted to 0.0199 µM; in test [2], 0.0003 µM; in test [3], 0.272 µM. Further, the stoichiometry N (usually a count of units in the complex or per binding partner) in test [4] turned out to be 3.
